The target of series [1] is T1, human MD-2 (myeloid differentiation factor 2) (human), Q9Y6Y9.
T1 chain: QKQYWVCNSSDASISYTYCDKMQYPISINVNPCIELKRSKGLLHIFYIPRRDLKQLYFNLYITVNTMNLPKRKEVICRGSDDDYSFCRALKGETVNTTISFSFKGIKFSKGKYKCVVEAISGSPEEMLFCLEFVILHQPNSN
Kind of series: SEC; nickel-purified protein on HiLoad 16/60 Superdex 200 in 50 mM sodium acetate, pH 5.0; without additive, or with the anti-aggregation additive (0.2 M MgSO4 for hMD-2) in culture medium and buffers. Conditions: remark: other sources report otherwise. (Size exclusion chromatography separates by hydrodynamic size, large species first.)

Series [2] deals with the molecule itself. In words: non-reducing SDS-PAGE with anti-His Western blot; culture supernatants of GS115 and KM71H cultures, induced without or with culture additives. On the technique in general: A western blot detects proteins with antibodies after separation by electrophoresis.

B1: human MD-2 (myeloid differentiation factor 2), Q9Y6Y9 19-160 (natural protein)
chain: T1 chain
The molecule B1 returned a percent monomeric (with 0.2 M MgSO4) in series [1] of 15%.

B2: human MD-1 (myeloid differentiation factor 1) (natural protein, UniProt O95711 21-162, looked up)
chain: GGGGKAWPTHVVCSDSGLEVLYQSCDPLQDFGFSVEKCSKQLKSNINIRFGIILREDIKELFLDLALMSQGSSVLNFSYPICEAALPKFSFCGRRKGEQIYYAGPVNNPEFTIPQGEYQVLLELYTEKRSTVACANATIMCS
notes: A TEV cleavage site lies between the His6-tag and the protein; Secreted by the S. cerevisiae alpha factor prepro peptide; Glycoprotein; also called hMD-1; source: Pichia pastoris GS115 or KM71H (pPIC9K), secreted; not shown: His6, N-terminal, kept
On to B2, for which, in series [2], the binding result is reported as “binds”.

The values are drawn from publication PMC3032050, “LPS ligand and culture additives improve production of monomeric MD-1 and 2 in Pichia pastoris by decreasing aggregation and intermolecular disulfide bonding” (Protein Expression and Purification, 2011).
